# Experimental data reported in patent publication US20070087413A1 (GENHUNTER, published 2007).
# “And” between values parts separate entries of the source, which are not always exact repeats. Identical values can stand only once.
# B1: trimeric soluble human TNF-RII-T2 fusion protein (human soluble TNF-RII fused to the T2 C-propeptide of human α(I) collagen) (receptor)
# chain: LPAQVAFTPYAPEPGSTCRLREYYDQTAQMCCSKCSPGQHAKVFCTKTSDTVCDSCEDSTYTQLWNWVPECLSCGSRCSSDQVETQACTREQNRICTCRPGWYCALSKQEGCRLCAPLRKCRPGFGVARPGTETSDVVCKPCAPGTFSNTTSSTDICRPHQICNVVAIPGNASMDAVCTSTSPTRSMAPGAVHLPQPVSTRSQHTQPTPEPSTAPSTSFLLPMGPSPPAEGSTGSDANVVRDRDLEVDTTLKSLSQQIENIRSPEGSRKNPARTCRDLKMCHSDWKSGEYWIDPNQGCNLDAIKVFCNMETGETCVYPTQPSVAQKNWYISKNPKDKRHVWFGESMTDGFQFEYGGQGSDPADVAIQLTFLRLMSTEASQNITYHCKNSVAYMDQQTGNLKKALLLKGSNEIEIRAEGNSRFTYSVTVDGCTSHTGAWGKTVIEYKTTKSSRLPIIDVAPLDVGAPDQEFGFDVGPVCFL
# Target: human TNF-α (R & D Systems) (human, UniProt P01375 77-233)
# Sequence (P01375 77-233 limits assumed): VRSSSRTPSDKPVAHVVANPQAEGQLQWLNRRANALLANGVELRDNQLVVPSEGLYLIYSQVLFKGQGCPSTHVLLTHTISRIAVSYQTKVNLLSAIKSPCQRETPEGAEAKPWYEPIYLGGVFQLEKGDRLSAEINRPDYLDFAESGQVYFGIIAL
# Assay: cell-based or functional assay
binder,measurement,value
B1,"apparent Ki-50 (50% inhibition) of TNF-α mediated apoptosis of WEHI-13VAR cells, human TNF-α at 0.5 ng/mL",~2 ng/mL and ~8e-12 M
